Our source for the Km, kcat and kcat/Km values is PMC10034468, “The Pseudomonas aeruginosa PAO1 metallo flavoprotein D-2-hydroxyglutarate dehydrogenase requires Zn^2+ for substrate orientation and activation” (The Journal of Biological Chemistry, 2023).

Substrate in data set [1]: O=C(O)CC[C@@H](O)C(=O)O
In words: steady-state oxygen consumption, Clark-type electrode. Format: biochemical, Pseudomonas aeruginosa. As to conditions: E-Zn2+, PMS as co-substrate, 25 mM NaPO4, pH 7.4, 25 °C. From the text:
(§1) steady-state oxygen consumption, Clark-type electrode on PaD2HGDH (E-Zn^2+ and E-Co^2+)

Substrate in data set [2]: O=C(O)C[C@@H](O)C(=O)O
The description is as above. Format: biochemical, Pseudomonas aeruginosa. The note with it: E-Zn2+, PMS as co-substrate, 25 mM NaPO4, pH 7.4, 25 °C.
Source text: as §1

B1: PaD2HGDH (E-Zn^2+ and E-Co^2+) (Pseudomonas aeruginosa PAO1) (protein)
chain: MTREALIESLKPLVEPGKLLDDAASLDAYGKDWTKHFAPAPLAIVFPKSVEQVQAIVRWANQHKVGLVPSGGRTGLSAAAVAANGEVVVAFDYMNRILDFNAFDRTVVCQPGVVTKQLQTFAEENGLYYPVDFASSGSSQIGGNIGTNAGGIKVIRYGMTRNWVAGMKVVTGKGDLLELNKDLIKNATGYDMRQLFIGAEGTLGFVVEATMRLERTPKNLTAMVLGTPDFDSIMPVLHAFQSKLDLTAFEFFSDKALAKVLARGDVPRAFETDCPFYALLEFEATTEEVANEALATFEHCVEQGWVLDGVMSQSEQQLQNLWKLREYISETISHWTPYKNDISVTVSRVPAFLKDIDAIVEANYPDFEVVWFGHIGDGNLHLNILKPENLGKDEFFAKCATVNKWVFETVEKYNGSISAEHGVGMTKRDYLTYTRSETEIAYMKALKAVFDPNGIMNPGKIFAE
notes: FAD enzyme
Broadly, the Km is the substrate concentration at which the rate is half of its maximum. In general, kcat refers to the maximal rate divided by the concentration of active sites. In general, kcat/Km refers to the second-order rate constant that governs catalysis at low substrate concentration. Take B1: in data set [1], the Km amounted to 0.08 ± 0.01 mM, the catalytic constant (kcat) was 26 ± 1 s⁻¹ and the kcat/Km came to 330000 ± 43000 M⁻¹ s⁻¹. Further, in data set [2], the Km was determined as 6.0 ± 0.6 mM, the turnover number (kcat) was 52 ± 2 s⁻¹ and the catalytic efficiency (kcat/Km) amounted to 9000 ± 900 M⁻¹ s⁻¹.
